Experiments:
[1] = biological target: T1, Arabidopsis thaliana PIN1 (PIN-FORMED 1 auxin transporter), full length, N-terminal Flag tag (A. thaliana, UniProt Q9C6B8); assay: cryo-EM structure; purified PIN1 and sybody-21 mixed at a molar ratio of ~1:3, gel filtration in 25 mM HEPES pH 7.4, 150 mM NaCl, 0.02% GDN; apo, IAA-bound (10 mM IAA) and NPA-bound (100 uM NPA) samples; settings: both partners purified
T1 construct: PIN1, Arabidopsis thaliana, UniProt Q9C6B8, full length; most of the hydrophilic loop is not visible in the cryo-EM map; Forms a homodimer in the cryo-EM structures; A monomeric class was also seen in the apo sample; also called AtPIN1; WT PIN1

[2] = biological target: the molecule itself; assay: as above

B1: Sybody-21 (synthetic nanobody selected against PIN1) (VHH)
VHH: QVQLVESGGGLVQAGGSLRLSCAASGFPVNISWMEWYRQVPGKEREWVAAIQSTGSYTWYADSVKGRFTISRDNAKNTVYLQMNSLKPEDTAVYYCRVKVGAYYRGQGTQVTVSA
notes: Selected by ribosome display and phage display from the Concave, Loop or Convex sybody libraries; The BLI methods speak of a His-tagged sybody; How the purified Sybody-21 was made is not described; also called the sybody
[1]
  binding result: binds

B2: Arabidopsis thaliana PIN1 (PIN-FORMED 1 auxin transporter), full length, N-terminal Flag tag (natural protein, A. thaliana, UniProt Q9C6B8 1-622, looked up)
chain: MITAADFYHVMTAMVPLYVAMILAYGSVKWWKIFTPDQCSGINRFVALFAVPLLSFHFIAANNPYAMNLRFLAADSLQKVIVLSLLFLWCKLSRNGSLDWTITLFSLSTLPNTLVMGIPLLKGMYGNFSGDLMVQIVVLQCIIWYTLMLFLFEYRGAKLLISEQFPDTAGSIVSIHVDSDIMSLDGRQPLETEAEIKEDGKLHVTVRRSNASRSDIYSRRSQGLSATPRPSNLTNAEIYSLQSSRNPTPRGSSFNHTDFYSMMASGGGRNSNFGPGEAVFGSKGPTPRPSNYEEDGGPAKPTAAGTAAGAGRFHYQSGGSGGGGGAHYPAPNPGMFSPNTGGGGGTAAKGNAPVVGGKRQDGNGRDLHMFVWSSSASPVSDVFGGGGGNHHADYSTATNDHQKDVKISVPQGNSNDNQYVEREEFSFGNKDDDSKVLATDGGNNISNKTTQAKVMPPTSVMTRLILIMVWRKLIRNPNSYSSLFGITWSLISFKWNIEMPALIAKSISILSDAGLGMAMFSLGLFMALNPRIIACGNRRAAFAAAMRFVVGPAVMLVASYAVGLRGVLLHVAIIQAALPQGIVPFVFAKEYNVHPDILSTAVIFGMLIALPITLLYYILLGL
notes: PIN1, Arabidopsis thaliana, UniProt Q9C6B8, full length; most of the hydrophilic loop is not visible in the cryo-EM map; Forms a homodimer in the cryo-EM structures; A monomeric class was also seen in the apo sample; also called AtPIN1; WT PIN1
[2]
  stoichiometry N: 2
